Legend:
[1] = test system: pentasaccharide bound murine antithrombin (plasma anti-Xa activity); experiment: Anti factor Xa assay in mouse plasma supplemented with Fondaparinux; type: biochemical
Protocol: During the animal experimentation (see detailed protocol below), human mutated antithrombins compete with murine antithrombin for their binding to the pentasaccharide. Thus, preliminary in vitro assays are performed to determine the human mutated antithrombin concentration necessary to compete with the murine antithrombin present in mouse plasma supplemented with Fondaparinux.
These experiments are performed as described in section II-b, using mouse plasma instead of human plasma.

[2] = test system: pentasaccharide bound plasma antithrombin (plasma anti-factor Xa activity); experiment: Rotachrom heparin anti factor Xa assay in pentasaccharide containing human plasma (competition with plasma antithrombin for pentasaccharide binding); type: biochemical; conditions: for effect on anti-Xa activity of pentasaccharide containing plasma sample: human plasma, pre-incubation 30 min at 37° C.; for virtual pentasaccharide concentration (residual anti-factor Xa activity): human plasma pool with 3 μg/ml pentasaccharide
Protocol: Anti factor Xa inhibitory activity of mutated antithrombins AT-R393H(SEQ ID NO: 4), AT-Pro394 (SEQ ID NO: 6), AT-ΔR393-5394 (SEQ ID NO: 18), AT-ΔR393 (SEQ ID NO: 8), AT-ΔS394 (SEQ ID NO: 10), AT-N135Q-R393H(SEQ ID NO: 14), AT-N135Q-Pro394 (SEQ ID NO: 16), AT-N135Q-ΔR393-S394 (SEQ ID NO: 24), AT-N135Q-ΔR393 (SEQ ID NO: 20), AT-N135Q-ΔS394 (SEQ ID NO: 22) is measured in pentasaccharide containing plasma. The plasma concentrations of pentasaccharides are defined on the basis on those measured in patients treated by the pentasaccharide under the conditions of a regular (curative) use of this molecule or in patients presenting an overdose of this drug, knowing that the optimal equilibrium concentration is 1.20-1.26 mg/L and the minimal equilibrium concentration is 0.46-0.62 mg/L during a curative pentasaccharide treatment (monograph, Arixtra®).
The anti factor Xa assay is performed using the Rotachrom® heparin method (Stago) adaptated for absorbance reading on a microplate reader (Dynatech MR 5000), or a STA analyser (Stago).
The procedure consists in mixing 30 μl of pentasaccharide containing plasma sample diluted four times in kinetic buffer, with 75 μl of chromogenic substrate (1 mM, provided in Rotachrom® heparin kit). After 4 min incubation, 75 μl of bovine factor Xa (24 nM, Rotachrom® heparin kit) is added to the plasma-substrate mixture. The factor Xa activity is measured a 405 nm absorbance increase, resulting from cleavage of the chromogenic substrate, using a microplate reader (Dynatech MR 5000). The rate constant (k), proportional to anti-factor Xa activity, is obtained by fitting the substrate hydrolysis curve to equation (3) or (3′).
Firstly, the assay is calibrated in citrated (0.105 M) normal human plasma containing pentasaccharide concentrations ranging from 0 to 3 mg/L. A standard curve is generated and anti-factor Xa activity is expressed as mg of pentasaccharide per liter of plasma.
Secondly, to evaluate the anti factor Xa inhibitory activity of mutated antithrombins, the mutated antithrombin (0-0.6 g/L, preferably 0.15-0.6 g/L, final concentration, in kinetic buffer) is pre-incubated with an equal volume of pentasaccharide (0-3 mg/L, preferably 1-3 mg/L) containing plasma samples, during 30 min at 37° C.
Under these conditions, the mutated antithrombin concentration range from one to four times that of the plasma antithrombin level, which is compatible with a therapeutic use of antithrombin. Indeed, very high doses of mutated antithrombin, with a 5 fold increase in plasma antithrombin level, have already been used during clinical trials without side effects (Leitner J M, Firbas C, Mayr F B, Reiter R A, Steinlechner B, Jilma B., Recombinant human antithrombin inhibits thrombin formation and interleukin 6 release in human endotoxemia. Clin Pharmacol Ther. 2006 January; 79(1):23-34). Anti factor Xa inhibitory activity is then evaluated as previously described.
To estimate whether mutated antithrombin can be used as reversal of pentasaccharide in case of over-dosing, AT-N135Q-R393H(SEQ ID NO: 14) and AT-N135Q-Pro394 (SEQ ID NO: 16) are tested in Rotachrom® heparin assay for their ability to restore factor Xa activity. Under conditions of treatment for prevention of venous thromboembolic events, optimal pentasaccharide concentration ranges between 1.2 and 1.26 μg/mL in plasma. To mimic an over-dosing, pentasaccharide is added to human plasma pool at concentration of 3 μg/ml. Rotachrom® heparin assay is then performed by incubation of plasma over-dosed with pentasaccharide in the presence of mutated antithrombin in a ratio 1/1, 2/1, and 4/1 compared to plasma antithrombin concentration (i.e. 0.15, 0.3, 0.6 g/l). In this ex vivo assay, anti-factor Xa activity is proportional to the amount of pentasaccharide bound natural antithrombin present in tested plasma, which amount is directly proportional to pentasaccharide concentration in plasma. […]

[3] = mutated antithrombin ratio 1/1 to plasma antithrombin (0.15 g/l)

Molecule	effect on anti-Xa activity of pentasaccharide contained in mouse plasma [1]	effect on anti-Xa activity of pentasaccharide containing plasma sample [2]	virtual pentasaccharide concentration (residual anti-factor Xa activity) [2, 3] [µg/mL]	virtual pentasaccharide concentration (residual anti-factor Xa activity) ([2]; ratio 2/1 (0.3 g/l)) [µg/mL]	virtual pentasaccharide concentration (residual anti-factor Xa activity) ([2]; ratio 4/1 (0.6 g/l)) [µg/mL]
AT-R393H: human antithrombin (SEQ ID NO:2) with substitution of the amino acid at position 393 by Histidine	significant decrease	significant decrease			
AT-N135Q-R393H: human antithrombin with substitution at 393 by Histidine and at 135 by Glutamine	significant decrease	significant decrease	1.04	0.49	0.29
AT-N135Q-Pro394: human antithrombin with Proline inserted between 393 and 394 and substitution at 135 by Glutamine (protein, listed as Homo sapiens) HGSPVDICTAKPRDIPMNPMCIYRSPEKKATEDEGSEQKIPEATNRRVWELSKANSRFATTFYQHLADSKNDNDNIFLSPLSISTAFAMTKLGACNDTLQQLMEVFKFDTISEKTSDQIHFFFAKLNCRLYRKAQKSSKLVSANRLFGDKSLTFNETYQDISELVYGAKLQPLDFKENAEQSRAAINKWVSNKTEGRITDVIPSEAINELTVLVLVNTIYFKGLWKSKFSPENTRKELFYKADGESCSASMMYQEGKFRYRRVAEGTQVLELPFKGDDITMVLILPKPEKSLAKVEKELTPEVLQEWLDELEEMMLVVHMPRFRIEDGFSLKEQLQDMGLVDLFSPEKSKLPGIVAEGRDDLYVSDAFHKAFLEVNEEGSEAAASTAVVIAGRPSLNPNRVTFKANRPFLVFIREVPLNTIIFMGRVANPCVK	significant decrease	significant decrease	1.16	0.59	0.36
AT-N135Q-ΔR393: human antithrombin with deletion of position 393 and substitution at 135 by Glutamine (protein, listed as Homo sapiens) HGSPVDICTAKPRDIPMNPMCIYRSPEKKATEDEGSEQKIPEATNRRVWELSKANSRFATTFYQHLADSKNDNDNIFLSPLSISTAFAMTKLGACNDTLQQLMEVFKFDTISEKTSDQIHFFFAKLNCRLYRKAQKSSKLVSANRLFGDKSLTFNETYQDISELVYGAKLQPLDFKENAEQSRAAINKWVSNKTEGRITDVIPSEAINELTVLVLVNTIYFKGLWKSKFSPENTRKELFYKADGESCSASMMYQEGKFRYRRVAEGTQVLELPFKGDDITMVLILPKPEKSLAKVEKELTPEVLQEWLDELEEMMLVVHMPRFRIEDGFSLKEQLQDMGLVDLFSPEKSKLPGIVAEGRDDLYVSDAFHKAFLEVNEEGSEAAASTAVVIAGSLNPNRVTFKANRPFLVFIREVPLNTIIFMGRVANPCVK	significant decrease	significant decrease			
AT-N135Q-ΔS394: human antithrombin with deletion of position 394 and substitution at 135 by Glutamine (protein, listed as Homo sapiens) HGSPVDICTAKPRDIPMNPMCIYRSPEKKATEDEGSEQKIPEATNRRVWELSKANSRFATTFYQHLADSKNDNDNIFLSPLSISTAFAMTKLGACNDTLQQLMEVFKFDTISEKTSDQIHFFFAKLNCRLYRKAQKSSKLVSANRLFGDKSLTFNETYQDISELVYGAKLQPLDFKENAEQSRAAINKWVSNKTEGRITDVIPSEAINELTVLVLVNTIYFKGLWKSKFSPENTRKELFYKADGESCSASMMYQEGKFRYRRVAEGTQVLELPFKGDDITMVLILPKPEKSLAKVEKELTPEVLQEWLDELEEMMLVVHMPRFRIEDGFSLKEQLQDMGLVDLFSPEKSKLPGIVAEGRDDLYVSDAFHKAFLEVNEEGSEAAASTAVVIAGRLNPNRVTFKANRPFLVFIREVPLNTIIFMGRVANPCVK	significant decrease	significant decrease			

Source: patent publication US8741844B2, “Use of mutated antithrombins for treating or preventing coagulation disorders” (Universite Paris-Sud XI, priority 2007, dated 2014)
